{"source": "patent US20140050720A1", "about": "“ULTRALONG COMPLEMENTARITY DETERMINING REGIONS AND USES THEREOF” (THE SCRIPPS RESEARCH INSTITUTE, priority 2012, published 2014)", "molecules": {"B1": {"name": "H12 (protein, listed as Bos taurus)", "chain": "CVIVHQKTTQQSSCPAGFRDCVACTPGPESCCRSGCDGARRRVGLRYFFDSTSPITTYTYEHHIDAW", "modifications": "H12"}, "B2": {"name": "hGCSF: human G-CSF (protein, UniProt P09919 31-207, looked up)", "Granulocyte …": "TPLGPASSLPQSFLLKCLEQVRKIQGDGAALQEKLVSECATYKLCHPEELVLLGHSLGIPWAPLSSCPSQALQLAGCLSQLHSGLFLYQGLLQALEGISPELGPTLDTLQLDVADFATTIWQQMEELGMAPALQPTQGAMPAFASAFQRRAGGVLVASHLQSFLEVSYRVLRHLAQP"}, "B3": {"name": "bGCSF: bovine G-CSF (granulocyte colony-stimulating factor) (protein, listed as Bos taurus)", "chain": "TPLGPARSLPQSFLLKCLEQVRKIQADGAELQERLCAAHKLCHPEELMLLRHSLGIPQAPLSSCSSQSLQLTSCLNQLHGGLFLYQGLLQALAGISPELAPTLDTLQLDVTDFATNIWLQMEDLGAAPAVQPTQGAMPTFTSAFQRRAGGVLVASQLHRFLELAYRGLRYLAEP", "modifications": "bGCSF"}}, "key": {"[1]": {"test_system": "NS2-3 non-structural proteins of BVDV", "assay": "Immunocytometric analysis of HEK 293A cells transfected with BVDV antigens", "type": "binding", "conditions": "10 μg/ml antibody", "procedure": "Additionally, binding of the chimeric recombinant antibodies to BVDV antigens was evaluated by immunocytometric analysis of transfected human embryonic kidney (HEK) 293A cells (Invitrogen), as previously described (see, e.g., Njongmeta et al. (2012) Vaccine 30:1624-1635). Briefly, HEK 293A monolayers grown in 6-well tissue culture plates were transfected with 2 μg/well of plasmid (pcDNA3.3, Invitrogen) encoding BVDV antigens (N^pro, E2, or non-structural proteins NS2-3) using Lipofectamine 2000 reagent (Invitrogen), and incubated for 48 hr at 37° C. with 5% CO2. The monolayers were fixed with ice-cold 100% methanol for 10 minutes, rinsed with PBS, and after blocking for 1 hr with PBS containing 5% fetal bovine serum (blocking buffer), the monolayers were incubated at room temperature for 1 hr with 10 μg/ml of a mouse anti-FLAG M2-alkaline phosphatase (AP)-conjugate (Sigma) in blocking buffer or 10 μg/ml of the chimeric recombinant antibodies (H12 or B8). […] Following washes in blocking buffer, the AP activity in all the wells was detected using Fast Red AS-MX substrate (Sigma). […]"}, "Human mPB CD34+ cells": {"test_system": "Human mPB CD34+ cells", "assay": "Proliferative activity on human granulocyte progenitors (flow cytometry)", "type": "cell-based", "conditions": "7 days", "procedure": "Human mPB CD34^+ cells were purchased from AllCells. Cells were resuspended in HSC expansion medium (StemSpan SFEM, StemCell Technologies) supplemented with 1× antibiotics and the following recombinant human cytokines thrombopoietin, IL6, Flt3 ligand, and stem cell factor (100 ng/mL, R & D Systems), then plated in 96-well plates (1000 cells per well), with varied concentrations of BLV1H12-bGCSF fusion antibodies. Cells were cultured for 7 days at 37° C. in a 5% CO2 incubator, then analyzed by flow cytometry to measure cell number and expression of CD45ra and CD41. Cells were stained in staining medium (HBSS supplemented with 2% FBS and 2 mM EDTA) at 4° C. for 1 h with PECy7 anti-CD45ra and eFluor 450 anti-CD41 (eBiosciences), then washed with staining medium and analyzed. Multicolor analysis for cell phenotyping was performed on a LSR II flow cytometer (Becton Dickinson). FIGS. 10A-10E and Tables 9-10 show the human granulocyte progenitor cell proliferative activities of the Ab-GCSF fusion antibodies."}, "Mouse NFS-60 cells": {"test_system": "Mouse NFS-60 cells", "assay": "Proliferation assay on mouse NFS-60 cells (AlamarBlue)", "type": "cell-based", "conditions": "72 hours", "procedure": "Mouse NFS-60 cells were obtained from American Type Culture Collection (ATCC), VA, and cultured in RPMI-1640 medium supplemented with 10% fetal bovine serum (FBS), 0.05 mM 2-mercapoethanol and 62 ng/ml human macrophage colony stimulating factor (M-CSF). For proliferation assay, mouse NFS-60 cells were washed three times with RPMI-1640 medium and resuspended in RPMI-1640 medium with 10% FBS and 0.05 mM 2-mercapoethanol at a density of 1.5×10^5 cells/ml. In 96-well plates, 100 μl of cell suspension was added into each well, followed by the addition of varied concentrations of bGCSF, BLV1H12 antibody, and the immunoglobulin constructs described herein, Equal volume of PBS buffer was added into the control wells. The plates were incubated at 37° C. in a 5% CO2 incubator for 72 hours. Cells were then treated with AlamarBlue (Invitrogen) ( 1/10 volume of cell suspension) for 4 hours at 37° C. Fluorescence at 595 nm for each well was read to indicate the cell viability."}, "mice neutrophils": {"test_system": "mice neutrophils", "assay": "Neutrophils counts in mice", "type": "in vivo", "conditions": "mice blood, 10th day post-injection, neutrophils among white blood cells", "procedure": "On the 10th day after injection of BLV1H12-bGCSF fusion antibodies into mice for PK study, blood samples were drawn from the mice and stained using the Diff Quick Staining Kit (Thermo Fisher Scientific, IL). Neutrophils and white blood cells were counted under microscope and the percentages of neutrophils were analyzed. FIGS. 12A-12B and Table 12 show proliferative activities of BLV1H12-bGCSF fusion antibodies on mice neutrophils that are blood stained and counted at the 10th day post-injection."}, "[2]": {"assay": "Pharmacokinetics of BLV1H12-bGCSF fusion antibodies in mice", "type": "in vivo", "conditions": "BALB/c mice, 70 μg injected", "procedure": "For PK study in mice, 70 μg of the immunoglobulin constructs described herein were injected into 3 BALB/c mice per group. Blood samples were drawn from time 0 to 14 days with extended intervals and analyzed by ELISA using anti-human IgG Fc antibody with horseradish peroxidase (HRP) labeled (KPL) and anti-6×His antibody with HRP labeled (Clontech). Data were normalized by taking maximal concentration at the first time point (30 min)."}}, "note": "“Also recorded” adds a separate entry of the source."}
{"molecule": "B1", "values": [{"measurement": "binding to HEK293A cells transfected with NS2-3", "setting": "[1]; HEK293A cells transfected with the NS2-3 non-structural proteins of BVDV", "result": "binds NS2-3 on cells; also recorded: strongly binds"}, {"measurement": "binding to untransfected cells", "setting": "[1]; untransfected HEK293A cells", "result": "weakly bound"}]}
{"molecule": "B2", "values": [{"measurement": "Number of CD45RA− CD41−", "setting": "Human mPB CD34+ cells; 0.05081 ng/mL", "result": 4175}, {"measurement": "Number of CD45RA− CD41−", "setting": "Human mPB CD34+ cells; 0.15242 ng/mL", "result": 3651}, {"measurement": "Number of CD45RA− CD41−", "setting": "Human mPB CD34+ cells; 0.45725 ng/mL", "result": 3671}, {"measurement": "Number of CD45RA− CD41−", "setting": "Human mPB CD34+ cells; 1.37174 ng/mL", "result": 4299}, {"measurement": "Number of CD45RA− CD41−", "setting": "Human mPB CD34+ cells; 4.11523 ng/mL", "result": 5900}, {"measurement": "Number of CD45RA− CD41−", "setting": "Human mPB CD34+ cells; 12.34568 ng/mL", "result": 7784}, {"measurement": "Number of CD45RA− CD41−", "setting": "Human mPB CD34+ cells; 37.03704 ng/mL", "result": 10500}, {"measurement": "Number of CD45RA− CD41−", "setting": "Human mPB CD34+ cells; 111.11111 ng/mL", "result": 12200}, {"measurement": "Number of CD45RA− CD41−", "setting": "Human mPB CD34+ cells; 333.33333 ng/mL", "result": 14100}, {"measurement": "Number of CD45RA− CD41−", "setting": "Human mPB CD34+ cells; 1000 ng/mL", "result": 13900}, {"measurement": "F.I. (AlamarBlue fluorescence at 595 nm, cell viability)", "setting": "Mouse NFS-60 cells; 0.09145 ng/mL", "result": 1266.554}, {"measurement": "F.I. (AlamarBlue fluorescence at 595 nm, cell viability)", "setting": "Mouse NFS-60 cells; 0.27435 ng/mL", "result": 1478.287}, {"measurement": "F.I. (AlamarBlue fluorescence at 595 nm, cell viability)", "setting": "Mouse NFS-60 cells; 0.82305 ng/mL", "result": 1752.216}, {"measurement": "F.I. (AlamarBlue fluorescence at 595 nm, cell viability)", "setting": "Mouse NFS-60 cells; 2.46914 ng/mL", "result": 2224.028}, {"measurement": "F.I. (AlamarBlue fluorescence at 595 nm, cell viability)", "setting": "Mouse NFS-60 cells; 7.40741 ng/mL", "result": 2587.222}, {"measurement": "F.I. (AlamarBlue fluorescence at 595 nm, cell viability)", "setting": "Mouse NFS-60 cells; 22.22222 ng/mL", "result": 2751.249}, {"measurement": "F.I. (AlamarBlue fluorescence at 595 nm, cell viability)", "setting": "Mouse NFS-60 cells; 66.66667 ng/mL", "result": 2815.37}, {"measurement": "F.I. (AlamarBlue fluorescence at 595 nm, cell viability)", "setting": "Mouse NFS-60 cells; 200 ng/mL", "result": 2948.509}]}
{"molecule": "B3", "values": [{"measurement": "Number of CD45RA− CD41−", "setting": "Human mPB CD34+ cells; 0.55886 ng/mL", "result": 7354}, {"measurement": "Number of CD45RA− CD41−", "setting": "Human mPB CD34+ cells; 1.67657 ng/mL", "result": 9776}, {"measurement": "Number of CD45RA− CD41−", "setting": "Human mPB CD34+ cells; 5.02972 ng/mL", "result": 12700}, {"measurement": "Number of CD45RA− CD41−", "setting": "Human mPB CD34+ cells; 15.08916 ng/mL", "result": 13200}, {"measurement": "Number of CD45RA− CD41−", "setting": "Human mPB CD34+ cells; 45.26749 ng/mL", "result": 13700}, {"measurement": "Number of CD45RA− CD41−", "setting": "Human mPB CD34+ cells; 135.80247 ng/mL", "result": 13300}, {"measurement": "Number of CD45RA− CD41−", "setting": "Human mPB CD34+ cells; 407.40741 ng/mL", "result": 13700}, {"measurement": "Number of CD45RA− CD41−", "setting": "Human mPB CD34+ cells; 1222.22222 ng/mL", "result": 14100}, {"measurement": "Number of CD45RA− CD41−", "setting": "Human mPB CD34+ cells; 3666.66667 ng/mL", "result": 13100}, {"measurement": "Number of CD45RA− CD41−", "setting": "Human mPB CD34+ cells; 11000 ng/mL", "result": 13800}, {"measurement": "Percentage of Neutrophil", "setting": "mice neutrophils", "result": 16.48}, {"measurement": "F.I. (AlamarBlue fluorescence at 595 nm, cell viability)", "setting": "Mouse NFS-60 cells; 0.09145 ng/mL", "result": 1214}, {"measurement": "F.I. (AlamarBlue fluorescence at 595 nm, cell viability)", "setting": "Mouse NFS-60 cells; 0.27435 ng/mL", "result": 1360.925}, {"measurement": "F.I. (AlamarBlue fluorescence at 595 nm, cell viability)", "setting": "Mouse NFS-60 cells; 0.82305 ng/mL", "result": 1761}, {"measurement": "F.I. (AlamarBlue fluorescence at 595 nm, cell viability)", "setting": "Mouse NFS-60 cells; 2.46914 ng/mL", "result": 2101}, {"measurement": "F.I. (AlamarBlue fluorescence at 595 nm, cell viability)", "setting": "Mouse NFS-60 cells; 7.40741 ng/mL", "result": 2405}, {"measurement": "F.I. (AlamarBlue fluorescence at 595 nm, cell viability)", "setting": "Mouse NFS-60 cells; 22.22222 ng/mL", "result": 2646}, {"measurement": "F.I. (AlamarBlue fluorescence at 595 nm, cell viability)", "setting": "Mouse NFS-60 cells; 66.66667 ng/mL", "result": 2812.098}, {"measurement": "F.I. (AlamarBlue fluorescence at 595 nm, cell viability)", "setting": "Mouse NFS-60 cells; 200 ng/mL", "result": 3087.144}, {"measurement": "Percentage (normalized to maximal concentration at the first time point, 30 min)", "setting": "[2]; 0.5 hour", "result": 100.00, "unit": "%"}, {"measurement": "Percentage (normalized to maximal concentration at the first time point, 30 min)", "setting": "[2]; 1 hour", "result": 79.52, "unit": "%"}, {"measurement": "Percentage (normalized to maximal concentration at the first time point, 30 min)", "setting": "[2]; 3 hour", "result": 56.81, "unit": "%"}, {"measurement": "Percentage (normalized to maximal concentration at the first time point, 30 min)", "setting": "[2]; 6 hour", "result": 14.94, "unit": "%"}, {"measurement": "Percentage (normalized to maximal concentration at the first time point, 30 min)", "setting": "[2]; 24 hour", "result": 4.08, "unit": "%"}, {"measurement": "Percentage (normalized to maximal concentration at the first time point, 30 min)", "setting": "[2]; 48 hour", "result": 0.00, "unit": "%"}, {"measurement": "Percentage (normalized to maximal concentration at the first time point, 30 min)", "setting": "[2]; 72 hour", "result": 0.00, "unit": "%"}]}
